Results on 17 molecules are retold here after US20240115722A1 (RUTGERS THE STATE UNIVERSITY OF NEW JERSEY, published 2024).

Sequences and labels used below:
B1: VH3/VK2 humanized 11C12 antibody (antibody, human IgG1, kappa)
heavy: not shown
light: DIVMTQSPDSLAVSLGERATINCKASQSVDYDGDSYMNWYQQKPGKAPKLLIYGASNLESGIPDRFSGSGSGTDFTLTISRLEPEDAASYYCQQSNEDPFTFGQGTKLEIKRTVAAPSVFIFPPSDEQLKSGTASVVCLLNNFYPREAKVQWKVDNALQSGNSQESVTEQDSKDSTYSLSSTLTLSKADYEKHKVYACEVTHQGLSSPVTKSFNRGEC
notes: Human IgG1/kappa; tested as HEK293 EBNA supernatant; also called H3K2
B2: VH2/VK1 humanized 11C12 antibody (antibody, human IgG1, kappa)
heavy: not shown
light: DIVMTQSPGSLAVSLGERATINCKASQSVDYDGDSYMNWYQQKPGKAPKLLIYGASNLESGIPDRFSGSGSGTDFTLTISRLEEEDAASYYCQQSNEDPFTFGQGTKLEIKRTVAAPSVFIFPPSDEQLKSGTASVVCLLNNFYPREAKVQWKVDNALQSGNSQESVTEQDSKDSTYSLSSTLTLSKADYEKHKVYACEVTHQGLSSPVTKSFNRGEC
notes: Human IgG1/kappa; tested as HEK293 EBNA supernatant; also called H2K1
B3: VH2/VK4 humanized 11C12 antibody (antibody, human IgG1, kappa)
heavy: not shown
light: DIVMTQSPDSLAVSLGERATINCKSSQSVDYDGDSYMNWYQQKPGKAPKLLIYGASNLESGIPDRFSGSGSGTDFTLTISRLEPEDAASYYCQQSNEDPFTFGQGTKLEIKRTVAAPSVFIFPPSDEQLKSGTASVVCLLNNFYPREAKVQWKVDNALQSGNSQESVTEQDSKDSTYSLSSTLTLSKADYEKHKVYACEVTHQGLSSPVTKSFNRGEC
notes: Human IgG1/kappa; tested as HEK293 EBNA supernatant; also called H2K4
B4: VH1/VK4 humanized 11C12 antibody (antibody, human IgG1, kappa)
heavy: not shown
light: DIVMTQSPDSLAVSLGERATINCKSSQSVDYDGDSYMNWYQQKPGKAPKLLIYGASNLESGIPDRFSGSGSGTDFTLTISRLEPEDAASYYCQQSNEDPFTFGQGTKLEIKRTVAAPSVFIFPPSDEQLKSGTASVVCLLNNFYPREAKVQWKVDNALQSGNSQESVTEQDSKDSTYSLSSTLTLSKADYEKHKVYACEVTHQGLSSPVTKSFNRGEC
notes: Human IgG1/kappa; tested as HEK293 EBNA supernatant; also called H1K4
B5: VH4/VK1 humanized 11C12 antibody (antibody, human IgG1, kappa, V domains shown)
VH: EVQLVESGGGLVQPGGSLKLSCAASGFTFSTFGIHWVRQAPGKGLEWVAYISGASTTIYYADTVKGRFTISRDNSKNTLYLQMNSLRAEDTAVYYCARYGTSFPYGLDYWGQGTLVTVSS
VL: DIVMTQSPGSLAVSLGERATINCKASQSVDYDGDSYMNWYQQKPGKAPKLLIYGASNLESGIPDRFSGSGSGTDFTLTISRLEEEDAASYYCQQSNEDPFTFGQGTKLEIKR
notes: Human IgG1/kappa; tested as HEK293 EBNA supernatant; also called H4K1
B6: VH1/VK5 humanized 11C12 antibody (antibody, human IgG1, kappa)
heavy: not shown
light: DIVMTQSPDSLAVSLGERATINCKSSQSVDYDGDSYMNWYQQKPGKAPKLLIYGASNLESGIPDRFSGSGSGTDFTLTISRLEPEDAAVYYCQQSNEDPFTFGQGTKLEIKRTVAAPSVFIFPPSDEQLKSGTASVVCLLNNFYPREAKVQWKVDNALQSGNSQESVTEQDSKDSTYSLSSTLTLSKADYEKHKVYACEVTHQGLSSPVTKSFNRGEC
notes: Human IgG1/kappa; tested as HEK293 EBNA supernatant; also called H1K5
B7: VH1/VK3 humanized 11C12 antibody (antibody, human IgG1, kappa)
heavy: not shown
light: DIVMTQSPDSLAVSLGERATINCKASQSVDYDGDSYMNWYQQKPGKAPKLLIYGASNLESGIPDRFSGSGSGTDFTLTISRLEPEDAAVYYCQQSNEDPFTFGQGTKLEIKRTVAAPSVFIFPPSDEQLKSGTASVVCLLNNFYPREAKVQWKVDNALQSGNSQESVTEQDSKDSTYSLSSTLTLSKADYEKHKVYACEVTHQGLSSPVTKSFNRGEC
notes: Human IgG1/kappa; tested as HEK293 EBNA supernatant; also called H1K3
B8: VH3/VK3 humanized 11C12 antibody (antibody, human IgG1, kappa)
heavy: not shown
light: DIVMTQSPDSLAVSLGERATINCKASQSVDYDGDSYMNWYQQKPGKAPKLLIYGASNLESGIPDRFSGSGSGTDFTLTISRLEPEDAAVYYCQQSNEDPFTFGQGTKLEIKRTVAAPSVFIFPPSDEQLKSGTASVVCLLNNFYPREAKVQWKVDNALQSGNSQESVTEQDSKDSTYSLSSTLTLSKADYEKHKVYACEVTHQGLSSPVTKSFNRGEC
notes: Human IgG1/kappa; tested as HEK293 EBNA supernatant; also called H3K3
B9: VH1/VK1 humanized 11C12 antibody (antibody, human IgG1, kappa)
heavy: not shown
light: DIVMTQSPGSLAVSLGERATINCKASQSVDYDGDSYMNWYQQKPGKAPKLLIYGASNLESGIPDRFSGSGSGTDFTLTISRLEEEDAASYYCQQSNEDPFTFGQGTKLEIKRTVAAPSVFIFPPSDEQLKSGTASVVCLLNNFYPREAKVQWKVDNALQSGNSQESVTEQDSKDSTYSLSSTLTLSKADYEKHKVYACEVTHQGLSSPVTKSFNRGEC
notes: Human IgG1/kappa; tested as HEK293 EBNA supernatant; also called H1K1
B10: VH0/VK1 (antibody, human IgG1, kappa, V domains shown)
VH: EVTLKESGGGLVQPGGSRKLSCAASGFTFSTFGIHWVRQAPEKGLEWVAYISGASTTIYYADTVKGRFTISRDNPKNTLFLQMTSLRSEDTAMYYCARYGTSFPYGLDYWGQGTSVTVSS
VL: DIVMTQSPGSLAVSLGERATINCKASQSVDYDGDSYMNWYQQKPGKAPKLLIYGASNLESGIPDRFSGSGSGTDFTLTISRLEEEDAASYYCQQSNEDPFTFGQGTKLEIKR
notes: tested as HEK supernatant; also called control antibody (chimeric heavy chain with humanized VK1 light chain)
B11: VH4/VK2 humanized 11C12 antibody (antibody, human IgG1, kappa, V domains shown)
VH: EVQLVESGGGLVQPGGSLKLSCAASGFTFSTFGIHWVRQAPGKGLEWVAYISGASTTIYYADTVKGRFTISRDNSKNTLYLQMNSLRAEDTAVYYCARYGTSFPYGLDYWGQGTLVTVSS
VL: DIVMTQSPDSLAVSLGERATINCKASQSVDYDGDSYMNWYQQKPGKAPKLLIYGASNLESGIPDRFSGSGSGTDFTLTISRLEPEDAASYYCQQSNEDPFTFGQGTKLEIKR
notes: Human IgG1/kappa; tested as HEK293 EBNA supernatant; also called H4K2
B12: VH2/VK3 humanized 11C12 antibody (antibody, human IgG1, kappa)
heavy: not shown
light: DIVMTQSPDSLAVSLGERATINCKASQSVDYDGDSYMNWYQQKPGKAPKLLIYGASNLESGIPDRFSGSGSGTDFTLTISRLEPEDAAVYYCQQSNEDPFTFGQGTKLEIKRTVAAPSVFIFPPSDEQLKSGTASVVCLLNNFYPREAKVQWKVDNALQSGNSQESVTEQDSKDSTYSLSSTLTLSKADYEKHKVYACEVTHQGLSSPVTKSFNRGEC
notes: Human IgG1/kappa; tested as HEK293 EBNA supernatant; also called H2K3
B13: VH3/VK5 humanized 11C12 antibody (antibody, human IgG1, kappa)
heavy: not shown
light: DIVMTQSPDSLAVSLGERATINCKSSQSVDYDGDSYMNWYQQKPGKAPKLLIYGASNLESGIPDRFSGSGSGTDFTLTISRLEPEDAAVYYCQQSNEDPFTFGQGTKLEIKRTVAAPSVFIFPPSDEQLKSGTASVVCLLNNFYPREAKVQWKVDNALQSGNSQESVTEQDSKDSTYSLSSTLTLSKADYEKHKVYACEVTHQGLSSPVTKSFNRGEC
notes: Human IgG1/kappa; tested as HEK293 EBNA supernatant; also called H3K5
B14: VH2/VK5 humanized 11C12 antibody (antibody, human IgG1, kappa)
heavy: not shown
light: DIVMTQSPDSLAVSLGERATINCKSSQSVDYDGDSYMNWYQQKPGKAPKLLIYGASNLESGIPDRFSGSGSGTDFTLTISRLEPEDAAVYYCQQSNEDPFTFGQGTKLEIKRTVAAPSVFIFPPSDEQLKSGTASVVCLLNNFYPREAKVQWKVDNALQSGNSQESVTEQDSKDSTYSLSSTLTLSKADYEKHKVYACEVTHQGLSSPVTKSFNRGEC
notes: Human IgG1/kappa; tested as HEK293 EBNA supernatant; also called H2K5
B15: VH1/VK2 humanized 11C12 antibody (antibody, human IgG1, kappa)
heavy: not shown
light: DIVMTQSPDSLAVSLGERATINCKASQSVDYDGDSYMNWYQQKPGKAPKLLIYGASNLESGIPDRFSGSGSGTDFTLTISRLEPEDAASYYCQQSNEDPFTFGQGTKLEIKRTVAAPSVFIFPPSDEQLKSGTASVVCLLNNFYPREAKVQWKVDNALQSGNSQESVTEQDSKDSTYSLSSTLTLSKADYEKHKVYACEVTHQGLSSPVTKSFNRGEC
notes: Human IgG1/kappa; tested as HEK293 EBNA supernatant; also called H1K2
B16: VH2/VK2 humanized 11C12 antibody (antibody, human IgG1, kappa)
heavy: not shown
light: DIVMTQSPDSLAVSLGERATINCKASQSVDYDGDSYMNWYQQKPGKAPKLLIYGASNLESGIPDRFSGSGSGTDFTLTISRLEPEDAASYYCQQSNEDPFTFGQGTKLEIKRTVAAPSVFIFPPSDEQLKSGTASVVCLLNNFYPREAKVQWKVDNALQSGNSQESVTEQDSKDSTYSLSSTLTLSKADYEKHKVYACEVTHQGLSSPVTKSFNRGEC
notes: Human IgG1/kappa; tested as HEK293 EBNA supernatant; also called H2K2
B17: VH3/VK1 humanized 11C12 antibody (antibody, human IgG1, kappa)
heavy: not shown
light: DIVMTQSPGSLAVSLGERATINCKASQSVDYDGDSYMNWYQQKPGKAPKLLIYGASNLESGIPDRFSGSGSGTDFTLTISRLEEEDAASYYCQQSNEDPFTFGQGTKLEIKRTVAAPSVFIFPPSDEQLKSGTASVVCLLNNFYPREAKVQWKVDNALQSGNSQESVTEQDSKDSTYSLSSTLTLSKADYEKHKVYACEVTHQGLSSPVTKSFNRGEC
notes: Human IgG1/kappa; tested as HEK293 EBNA supernatant; also called H3K1

The target in this test is T1, recombinant human EphA5 (rhEphA5) antigen (human, UniProt P54756 25-573).
T1 construct: also called human EphA5 (R and D systems, Cat. No. 3036-A5); recombinant EphA5
T1 sequence (P54756 25-573 limits assumed): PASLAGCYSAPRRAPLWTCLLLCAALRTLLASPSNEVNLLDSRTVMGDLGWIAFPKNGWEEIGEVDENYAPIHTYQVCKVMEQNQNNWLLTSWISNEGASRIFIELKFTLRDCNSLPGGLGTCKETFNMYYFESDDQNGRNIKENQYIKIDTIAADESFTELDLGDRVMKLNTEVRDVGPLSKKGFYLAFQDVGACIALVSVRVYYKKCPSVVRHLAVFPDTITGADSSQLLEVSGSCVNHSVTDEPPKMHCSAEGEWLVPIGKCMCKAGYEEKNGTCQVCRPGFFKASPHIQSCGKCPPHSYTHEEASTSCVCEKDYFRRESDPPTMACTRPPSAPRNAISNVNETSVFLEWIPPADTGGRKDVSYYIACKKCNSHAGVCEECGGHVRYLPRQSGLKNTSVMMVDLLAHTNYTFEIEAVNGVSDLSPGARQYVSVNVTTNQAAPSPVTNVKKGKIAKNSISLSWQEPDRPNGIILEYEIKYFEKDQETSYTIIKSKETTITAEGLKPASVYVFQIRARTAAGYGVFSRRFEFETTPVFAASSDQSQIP
The test can be described thus: SPR single-cycle kinetics (Biacore T200), IgG from HEK supernatant captured on anti-human IgG CM5 chip, rhEphA5 as analyte, 1:1 fit. Also on record: Relative KD: reference not given here. The procedure: Kinetic analysis was carried out on a Biacore T200. Each antibody was captured on a CM5 chip coupled with an anti-human IgG using standard amine chemistry before increasing concentrations of antigen were injected and a single off-rate was determined.
Kinetic experiments were performed at 25° C. on a Biacore T200 running Biacore T200 Control software V2.0.1 and Evaluation software V3.0 (Cytiva, Uppsala, Sweden).
HBS-P+ (Cytiva, Uppsala, Sweden), supplemented with 1% BSA (Sigma, Dorset, UK) was used as running buffer as well as for ligand and analyte dilutions. Supernatants containing IgG were diluted in running buffer to 1 μg/mL. At the start of each cycle, antibodies were loaded onto Fc2, Fc3 and Fc4 of an anti-human IgG CM5 sensor chip (Cytiva, Little Chalfont, UK). Ig were captured at a flow rate of […] to give an immobilization level (RL) of ˜60 RU. The surface was then allowed to stabilize.
Background: SPR reads the build-up and loss of mass on a sensor chip optically.
Consider B1, for which the Kd (commonly a measure of binding affinity in units of concentration) amounted to 0.968 nM, the “Relative KD” value came to 0.73 and the koff (commonly a measure of how fast the partners let go of each other) is 0.0013 s⁻¹.

Regarding B2, the dissociation constant Kd came out at 0.89 nM, the “Relative KD” value came to 0.67 and the koff came to 0.0012 s⁻¹.

For the molecule B3, the Kd is 0.917 nM, the “Relative KD” value came out at 0.69 and the koff stood at 0.00126 s⁻¹.

Consider B4, for which the Kd stood at 1.1 nM, the “Relative KD” value was 0.83 and the koff turned out to be 0.00137 s⁻¹.

Regarding B5, the dissociation constant Kd was determined as 0.975 nM, the “Relative KD” value was 0.73 and the off-rate constant (koff) turned out to be 0.00129 s⁻¹.

Turning to B6, the Kd was determined as 1.12 nM, the “Relative KD” value is 0.84 and the koff was 0.00139 s⁻¹.

Consider B7, for which the dissociation constant (Kd) came out at 0.948 nM, the “Relative KD” value amounted to 0.71 and the koff was 0.00125 s⁻¹.

With B8, the Kd turned out to be 1.01 nM, the “Relative KD” value was found to be 0.76 and the koff was 0.00133 s⁻¹.

B9: the Kd was 1.02 nM, the “Relative KD” value was 0.77 and the off-rate constant (koff) was determined as 0.00128 s⁻¹.

For B10, the Kd was found to be 1.12 nM, the “Relative KD” value was found to be 0.84 and the koff came to 0.00137 s⁻¹.

B11: the Kd is 0.854 nM, the “Relative KD” value was determined as 0.64 and the koff is 0.00114 s⁻¹.

For the molecule B12, the Kd was determined as 0.985 nM, the “Relative KD” value was found to be 0.74 and the koff was determined as 0.00132 s⁻¹.

Take B13: the Kd amounted to 1.1 nM, the “Relative KD” value amounted to 0.83 and the koff is 0.00143 s⁻¹.

As for B14, the Kd came to 1.05 nM, the “Relative KD” value was found to be 0.79 and the koff turned out to be 0.0014 s⁻¹.

For the molecule B15, the Kd was found to be 0.968 nM, the “Relative KD” value was determined as 0.73 and the koff turned out to be 0.00126 s⁻¹.

As for B16, the Kd was 0.971 nM, the “Relative KD” value came to 0.73 and the koff worked out at 0.00126 s⁻¹.

With B17, the Kd was 0.884 nM, the “Relative KD” value turned out to be 0.66 and the koff is 0.00123 s⁻¹.
